Patent publication US20230310596A1, “DRUG FOR TREATING TUMOR” (priority 2020, published 2023)
Like-named read-outs stand apart in the source and are kept apart here.

System: MSI-H or dMMR endometrial cancer
Type: in vivo, human
Protocol: Endometrial cancer subjects meeting inclusion criteria were first tested for MMR/MSI status by immunohistochemical or PCR methods, and then grouped according to the MSI-H/dMMR test results; for non-MSI-H/non-dMMR subjects, an anti-PD-L1 antibody and anlotinib hydrochloride (cohort I) were administered, while for MSI-H or dMMR subjects, an anti-PD-L1 antibody (cohort II) was administered, and for patients with disease under control (CR + PR + SD) and tolerable adverse reactions, the administration could be continued until clinical benefits were lost, until the toxicity was intolerable, until PD/iCPD was given by efficacy evaluation, or until the investigator deemed further medication inappropriate. Efficacy evaluations were performed every 6 weeks (42 days) ± 3 days, starting on day 1 of treatment cycle 1, and the efficacy evaluations were performed once every 12 weeks (84 days) ± 3 days after 54 weeks, until the subjects developed disease progression confirmed by oncologic imaging. 1) Histologically or cytologically confirmed unresectable recurrent or metastatic advanced endometrial cancer (previously received 1-2 lines of systemic standard chemotherapy and failed or was intolerant; preliminary neoadjuvant or adjuvant chemotherapy was allowed). 2) It was confirmed that there was at least one measurable lesion according to the Response Evaluation Criteria in Solid Tumors (RECIST 1.1). 3) Age: ≥18 years; ECOG PS scoring: 0-1; an expected survival time of more than 3 months. Anti-PD-L1 antibody injection hu5G11-hIgG1: 1200 mg of the anti-PD-L1 antibody injection (strength: 600 mg/20 mL) was diluted to 250 mL with normal saline, and the infusion time was 60 ± 10 min (from the beginning of the infusion of the anti-PD-L1 antibody injection until the end of the infusion of the anti-PD-L1 antibody injection and the completion of flushing the tube with normal saline (20 mL recommended)). The anti-PD-L1 antibody injection was administered on the first day, and once every 21 days, that is, 21 days were counted as a treatment cycle (d1/q3w). Safety evaluation criteria: the severity of adverse events was determined using the NCI-CTC AE 5.0 criteria. Effectiveness evaluation criteria: disease status was determined using RECIST 1.1, iRECIST criteria. RECIST 1.1 criteria were used as the primary criteria, and iRECIST criteria were used to confirm efficacy. That is, subjects determined to be disease progression (PD) according to RECIST 1.1 criteria were further confirmed according to iRECIST criteria to determine whether to take further medication observation. Primary endpoint: objective response rate (ORR) for IRC evaluation Secondary endpoint: (1) objective response rate (ORR), disease control rate (DCR), duration of response (DOR), progression-free survival (PFS), overall survival (OS), DOR rate (≥ 6 months), and the like evaluated by investigators; (2) the incidence and severity of adverse events (AEs) and serious adverse events (SAEs), and abnormal laboratory test indicators.

[1] = cohort II, after at least 2 cycles of treatment
[2] = cohort II, after at least 2 cycles of treatment, listed as anti-PD-L1 antibody

B1: Cohort II: anti-PD-L1 humanized monoclonal antibody hu5G11-hIgG1, prepared as described in WO2016022630, given as injection (antibody, V domains shown)
VH: QITLKESGPTLVKPTQTLTLTCTVSGFSLSTYGVHWIRQPPGKALEWLGVIWRGVTTDYNAAFMSRLTITKDNSKNQVVLTMNNMDPVDTATYYCARLGFYAMDYWGQGTLVTVSS
VL: DIQMTQSPSSLSASVGDRVTITCKASQSVSNDVAWYQQKPGKAPKLLIYYAANRYTGVPDRFSGSGYGTDFTFTISSLQPEDIATYFCQQDYTSPYTFGQGTKLEIK
modifications: hIgG1 constant regions; VH of hu5G11-hIgG1 and hu5G11-hIgG4; VL of hu5G11-hIgG1 and hu5G11-hIgG4
best response CR, number of subjects (cohort II, MSI-H or dMMR subjects, after at least 2 cycles of treatment, RECIST 1.1/iRECIST, antibody 1200 mg d1/q3w): 0/6
DCR, number of subjects [1]: 3/6
ORR, number of subjects [1]: ⅙
best response CR, ratio [1]: (0.00%)
best response PD, ratio [1]: (50.00%)
best response PR (partial response), number of subjects [1]: ⅙
best response PR, ratio [1]: (16.67%)
best response SD (stable disease), number of subjects [1]: 2/6
best response SD, ratio [1]: (33.33%)
disease control rate (DCR) [1]: (50.00%)
objective response rate (ORR) [1]: (16.67%)
disease control rate (DCR) [2]: 50.00%
objective response rate (ORR) [2]: 16.67%
adverse reaction incidence (human, in vivo): 67%
incidence of adverse reactions above grade 3 (human, in vivo): 16%
